In patent US6365350B1, “Method of DNA sequencing” (The Institute of Physical and Chemical Research, priority 1997, dated 2002):
“Also recorded” adds a separate entry of the source.

Assays:
[1] = tested on: 3′-dATP; experiment: Inhibition of [α-32P]UTP incorporation by 3′-dATP in transcription reaction (relative activity for 3′-dATP); type: biochemical
[2] = tested on: DNA containing T7 promoter; settings: in vitro, compared with wild type T7 RNA polymerase
Procedure: Subsequent steps for purification of enzyme should be performed at a temperature lower than room temperature, preferably 0-5° C. unless otherwise indicated. The E. coli cells were washed with 10 times relative to the cell weight of a washing buffer (20 mM Tris-HCl, pH 8.1, 130 mM NaCl, 2 mM EDTANa2 at 25° C.), centrifuged again (5,000×g, 4° C., 10 minutes), suspended in 10 times in volume of a sonication buffer [50 mM Tris-HCl, pH 8.1, 100 mM NaCl, 0.1 mM EDTANa2, 5 mM dithiothreitol (DTT), 0.1 mM benzamidine, 30 μg/ml phenylmethylsulfonyl fluoride (PMSF), 10 μg/ml bacitracin], and sonicated by using Sonifier 450 (Branson) at 80W for more than 15 minutes to destroy the cells and reduce the viscosity of the cells. Then, the cell suspension is centrifuged at 12,000×g and 4° C. for ten minutes to remove the cell debris. 10% streptomycin sulfate was slowly added dropwise to the resulting supernatant to a final concentration of 2.0% with stirring, and stirring was further continued for 30 minutes. The supernatant was centrifuged at 12,000×g and 4° C. for ten minutes to remove precipitates, and slowly added with ammonium sulfate powder with stirring to form precipitates. In this case, precipitates were first collected by 30% saturation of ammonium sulfate (30% ammonium sulfate precipitation), and the resulting supernatant was further added with ammonium sulfate to 60% saturation with stirring to form precipitates again (30-60% ammonium sulfate precipitation). The supernatant was added again with ammonium sulfate powder to 90% ammonium sulfate saturation, and stirred at 4° C. for 1 hour, and the precipitates were collected by centrifugation. […] The.30′60% ammonium sulfate fraction was suspended in a small amount of column buffer (20 mM KPO4, pH 7.7, 100 mM NaCl, 1 mM DTT, 30 μg/ml PMSF), and desalted by dialysis against 500 ml of the same buffer for 16hours. The dialysate was applied on a heparin-Sepharose column of 5 ml volume (Pharmacia Biotech). Subsequently, the column was washed with the same buffer until any material absorbing ultraviolet ray at 280 nm disappeared, and eluted with a linear gradient of 0.1 M to 0.64 M NaCl in the same buffer of about 40 times volume of the column volume. The eluent was collected in test tubes as fractions of a suitable volume, and immediately subjected to SDS-acrylamide gel electrophoresis for protein analysis to identify fractions containing proteins around a molecular weight considered to be of the objective T7 RNA polymerase. […] The fractions containing the protein were collected, and desalted by dialysis against about 1 liter of the column buffer (20 mM KPO4, pH 7.7, 100 mM NaCl, 1 mM DTT, 30 μg/ml PMSF) for 16 hours. The fractions desalted by dialysis were applied to a Q-Sepharose column (Pharmacia Biotech) of 5 ml volume that preliminarily equilibrated with the same buffer, and the column was washed with the same buffer until any material absorbing ultraviolet ray at 280 nm disappeared, and eluted with a linear gradient of 0.1 M to 0.64 M NaCl in the same buffer of about 40 times volume of the column volume. The eluent was collected in test tubes as fractions of a suitable volume, and immediately subjected to SDS-acrylamide gel electrophoresis for protein analysis to identify fractions containing proteins around a molecular weight considered to be of the objective T7 RNA polymerase. […] The fractions containing the protein were collected, dialyzed against 500 ml of storage buffer (50% glycerol, 20 mM KPO4, pH 7.7, 100 mM NaCl, 1 mM DTT, 30 μg/ml PMSF) for 16 hours, and stored at −20° C. until use. In vitro RNA synthesis activity and activity of the contaminated ribonuclease of this sample were examined.

[3] = tested on: dye terminators; experiment: Sequencing reaction utilizing mutant T7 RNA polymerase F644Y/L665P/F667Y (Example 8); type: biochemical; settings: PCR product template, n=4 dye terminators, FIG. 41
[4] = tested on: 3′-dATP, 3′-dGTP, 3′-dCTP, 3′-dUTP and derivatives thereof
Procedure: The T7 RNA polymerases introduced with mutations were purified, and their abilities of promoter sequence specific RNA synthesis and incorporation of ribonucleoside 5′-triphosphates including ATP, GTP, CTP, UTP and derivatives thereof, as well as 3′-DATP, 3′-dGTP, 3′-dCTP, 3′-dUTP and derivatives thereof were compared with those of wild type T7 RNA polymerase.
For two kinds of reaction mixture (with or without 3′-DATP, final concentration was 100 μM), the reaction was performed at 37° C. for 60 minutes. The whole reaction mixture was spotted on DE81 paper (Whatman), washed three times with phosphate buffer, and dried. The DE81 paper was placed into a scintillation vial, and radioactivity was measured using a scintillation counter (Beckman) for each reaction. Degree of inhibition of the [α-^32P]UTP incorporation was calculated by comparing the values obtained with and without 3′-dATP based on the measured radioactivity.

B1: F644Y/L665P/F667Y: mutant T7 RNA polymerase introduced with F644Y/L665P/F667Y mutations (protein)
chain: MNTINIAKNDFSDIELAAIPFNTLADHYGERLAREQLALEHESYEMGEARFRKMFERQLKAGEVADNAAAKPLITTLLPKMIARINDWFEEVKAKRGKRPTAFQFLQEIKPEAVAYITIKTTLACLTSADNTTVQAVASAIGRAIEDEARFGRIRDLEAKHFKKNVEEQLNKRVGHVYKKAFMQVVEADMLSKGLLGGEAWSSWHKEDSIHVGVRCIEMLIESTGMVSLHRQNAGVVGQDSETIELAPEYAEAIATRAGALAGISPMFQPCVVPPKPWTGITGGGYWANGRRPLALVRTHSKKALMRYEDVYMPEVYKAINIAQNTAWKINKKVLAVANVITKWKHCPVEDIPAIEREELPMKPEDIDMNPEALTAWKRAAAAVYRKDKARKSRRISLEFMLEQANKFANHKAIWFPYNMDWRGRVYAVSMFNPQGNDMTKGLLTLAKGKPIGKEGYYWLKIHGANCAGVDKVPFPERIKFIEENHENIMACAKSPLENTWWAEQDSPFCFLAFCFEYAGVQHHGLSYNCSLPLAFDGSCSGIQHFSAMLRDEVGGRAVNLLPSETVQDIYGIVAKKVNEILQADAINGTDNEVVTVTDENTGEISEKVKLGTKALAGQWLAYGVTRSVTKRSVMTLAYGSKEYGFRQQVLEDTIQPAIDSGKGPMYTQPNQAAGYMAKLIWESVSVTVVAAVEAMNWLKSAAKLLAAEVKDKKTGEILRKRCAVHWVTPDGFPVWQEYKKPIQTRLNLMFLGQFRLQPTINTNKDSEIDAHKQESGIAPNFVHSQDGSHLRKTVVWAHEKYGIESFALIHDSFGTIPADAANLFKAVRETMVDTYESCDVLADFYDQFADQLHESQLDKMPALPAKGNLNLRDILESDFAFA
[1]; among the mutant enzymes prepared
  bias for the 3′-dATP incorporation: the least bias
[1]; from Table 1
  more likely to incorporate 3′-dATP in comparison with the wild type enzyme: 5.58 times
[1]; relative value of inhibition degree of [α-32P]UTP incorporation by 100 μM 3′-dATP, wild type normalized to 1.000, 37° C., 60 minutes
  Relative activity of RNA polymerase for 3′-dATP: 5.580
[2]
  RNA synthesis activity: maintained sufficient RNA synthesis activity
[3]
  incorporation rate of dye terminators (electrogram): improvement of incorporation rate of dye terminators
[4]
  bias of incorporation observed in the wild type: markedly reduced
[4]; compared with wild type T7 RNA polymerase
  ability for incorporating 3′-dATP, 3′-dGTP, 3′-dCTP, 3′-dUTP and derivatives thereof: marked improvement; also recorded: the highest; also recorded: markedly improved ability
